The target in this assay is aFGF receptors on the surface of NBT-II cells (rat (endogenous in NBT-II)). Description: radioligand binding.

As to “Human recombinant acidic FGF (from UniProt P05230 1-155) (ligand)”, the cpm bound (cells preincubated with 100 ng/ml pertussis toxin) was found to be 11800 cpm, the cpm bound (cells preincubated with 10 ug/ml cholera toxin) amounted to 13600 cpm, the cpm bound (cells preincubated with 100 uM forskolin) came to 14300 cpm and the cpm bound (untreated cells) amounted to 12700 cpm.

Values taken from article PMC2119551.
